Source: patent publication US20050143472A1, “Novel treatment for pathologies associated with oxidative damage” (priority 2002, published 2005)

Assay: Freeze/thaw stability of recombinant mPAO activity
Format: physicochemical
Description: Using the conditions for the steady-state kinetic assay described below, mPAO was determined to be stable at 2-4 mg/mL when frozen at −20° C. or −80° C. and thawed through several cycles. […] Thus, mPAO was stored at −20° C. in the presence of 33% (v/v) ethylene glycol. Ethylene glycol elimination and buffer exchange was accomplished easily by several concentration/dilution cycles using Centricon-10 centrifuge concentrators.

B1: mPAO: recombinant murine peroxisomal polyamine oxidase (SEQ ID NO:4) produced in E. coli (protein, listed as Mus musculus)
chain: MAFPGPRVLVVGSGIAGLGAAQKLCSHRAAPHLRVLEATASAGGRIRSERCFGGVVELGAHWIHGPSQDNPVFQLAAEFGLLGEKELSEENQLVDTGGHVALPSMIWSSSGTSVSLELMTEMARLFYGLIERTREFLNESETPMASVGEFLKKEISQQVASWTEDDEDTRKRKLAILNTFFNIKCCVSGTHSMDLVALAPFGEYTVLPGLDCILAGGYQGLTDRILASLPKDTVAFDKPVKTIHWNGSFQEAAFPGETFPVLVECEDGARLPAHHVIVTVPLGFSKEHQDTFFEPPLPAKKAEAIKKLGFGTNNKIFLEFEEPFWEPDCQFIQVVWEDTSPLQDTALSLQDTWFKKLIGFLVQPSFESSHVLCGFIAGLESEFMETLSDEEVLLSLTQVLRRVTGNPQLPAAKSVLSSRWHSAPYTRGSYSYVAVGSTGDDLDLMAQPLPADGTGTQLQVLFAGEATHRTFYSTTHGALLSGWREADRLIGLWDSQAEQSRPRL
For B1, the “stability of activity on freezing and thawing” value (30 μg/mL, several freeze/thaw cycles) was “activity was lost quickly”, the “stability of activity on freezing and thawing” value (2-4 mg/mL, frozen at −20° C. or −80° C., several cycles) was “stable” and the “stability of activity on freezing and thawing” value (33% (v/v) ethylene glycol added, 20 μg/mL to 4 mg/mL) was “stable for several cycles of freezing and thawing”.
